Assay results taken from US20080299088A1 (US Dept. of Health and Human Services, published 2008).
Blank lines part the entries; values can stand above or below the binder they belong to.

Biological target: Notch-1 receptor on RIN 1046-38 clonal rat beta-cells (rat, UniProt Q07008 19-2531)
Test: cell-based or functional assay

Chain of Notch-1 receptor on RIN 1046-38 clonal rat beta-cells (Q07008 19-2531): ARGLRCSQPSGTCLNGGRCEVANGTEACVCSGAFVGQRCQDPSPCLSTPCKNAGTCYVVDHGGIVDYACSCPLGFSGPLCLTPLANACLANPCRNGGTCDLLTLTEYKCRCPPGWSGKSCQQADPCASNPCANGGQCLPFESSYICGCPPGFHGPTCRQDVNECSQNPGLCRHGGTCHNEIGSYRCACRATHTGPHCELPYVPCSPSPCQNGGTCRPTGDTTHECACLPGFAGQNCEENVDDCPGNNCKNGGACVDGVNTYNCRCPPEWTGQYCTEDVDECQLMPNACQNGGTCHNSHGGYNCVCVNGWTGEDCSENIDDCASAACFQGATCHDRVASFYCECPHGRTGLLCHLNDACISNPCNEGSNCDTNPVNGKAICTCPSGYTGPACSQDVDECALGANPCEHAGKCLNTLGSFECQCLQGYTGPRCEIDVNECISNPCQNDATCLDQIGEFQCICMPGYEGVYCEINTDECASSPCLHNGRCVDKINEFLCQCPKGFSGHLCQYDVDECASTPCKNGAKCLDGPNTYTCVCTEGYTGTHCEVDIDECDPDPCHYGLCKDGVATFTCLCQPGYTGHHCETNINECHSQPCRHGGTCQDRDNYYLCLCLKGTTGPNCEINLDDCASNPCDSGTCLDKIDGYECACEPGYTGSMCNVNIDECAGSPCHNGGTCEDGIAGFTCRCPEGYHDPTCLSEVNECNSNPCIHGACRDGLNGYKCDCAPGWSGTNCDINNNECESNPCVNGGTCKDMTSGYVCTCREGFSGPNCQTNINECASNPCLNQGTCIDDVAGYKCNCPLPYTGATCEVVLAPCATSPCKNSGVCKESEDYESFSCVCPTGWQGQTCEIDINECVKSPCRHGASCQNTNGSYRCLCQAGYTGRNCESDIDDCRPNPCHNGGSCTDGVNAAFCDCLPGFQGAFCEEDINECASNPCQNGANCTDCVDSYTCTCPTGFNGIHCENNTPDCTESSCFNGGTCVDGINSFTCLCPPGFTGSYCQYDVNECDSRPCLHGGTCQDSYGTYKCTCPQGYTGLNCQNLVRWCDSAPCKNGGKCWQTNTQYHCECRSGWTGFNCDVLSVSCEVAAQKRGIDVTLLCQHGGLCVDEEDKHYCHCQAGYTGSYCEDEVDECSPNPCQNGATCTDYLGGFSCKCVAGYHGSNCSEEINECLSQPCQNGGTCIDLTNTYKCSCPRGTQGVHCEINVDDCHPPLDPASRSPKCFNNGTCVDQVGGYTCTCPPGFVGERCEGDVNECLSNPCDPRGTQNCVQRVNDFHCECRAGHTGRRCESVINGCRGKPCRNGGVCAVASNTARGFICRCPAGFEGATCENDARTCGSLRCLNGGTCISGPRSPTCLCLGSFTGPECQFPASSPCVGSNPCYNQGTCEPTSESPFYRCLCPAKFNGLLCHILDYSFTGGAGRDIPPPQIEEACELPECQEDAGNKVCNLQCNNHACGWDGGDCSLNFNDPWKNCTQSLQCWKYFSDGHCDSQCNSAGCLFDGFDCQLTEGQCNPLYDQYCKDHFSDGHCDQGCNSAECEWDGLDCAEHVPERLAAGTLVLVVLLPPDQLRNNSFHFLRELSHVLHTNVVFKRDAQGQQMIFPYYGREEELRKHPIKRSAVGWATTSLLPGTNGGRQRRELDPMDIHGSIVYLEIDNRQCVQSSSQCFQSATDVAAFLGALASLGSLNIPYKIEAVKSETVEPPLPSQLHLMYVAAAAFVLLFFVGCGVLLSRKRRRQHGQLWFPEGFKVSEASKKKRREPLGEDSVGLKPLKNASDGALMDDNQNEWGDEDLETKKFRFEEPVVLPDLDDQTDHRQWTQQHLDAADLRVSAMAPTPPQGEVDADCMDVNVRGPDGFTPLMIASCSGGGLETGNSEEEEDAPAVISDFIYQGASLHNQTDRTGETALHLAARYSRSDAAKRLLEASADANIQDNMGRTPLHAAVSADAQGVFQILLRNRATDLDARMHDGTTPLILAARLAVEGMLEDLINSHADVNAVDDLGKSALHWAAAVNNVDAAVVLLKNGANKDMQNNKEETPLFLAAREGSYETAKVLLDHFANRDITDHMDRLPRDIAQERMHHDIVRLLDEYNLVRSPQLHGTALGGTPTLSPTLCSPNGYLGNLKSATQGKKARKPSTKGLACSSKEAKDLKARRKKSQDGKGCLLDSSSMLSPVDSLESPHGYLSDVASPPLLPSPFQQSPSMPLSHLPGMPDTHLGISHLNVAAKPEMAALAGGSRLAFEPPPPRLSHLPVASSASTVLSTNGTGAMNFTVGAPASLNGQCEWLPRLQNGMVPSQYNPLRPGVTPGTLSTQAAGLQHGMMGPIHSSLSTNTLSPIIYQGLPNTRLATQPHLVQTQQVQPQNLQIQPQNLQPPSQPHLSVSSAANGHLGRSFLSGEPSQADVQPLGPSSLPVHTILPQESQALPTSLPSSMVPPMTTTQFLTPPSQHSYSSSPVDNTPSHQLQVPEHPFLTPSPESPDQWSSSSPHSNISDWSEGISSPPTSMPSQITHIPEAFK

NICD translocation (nuclear NICD, immunoblot of nuclear extracts of RIN cells): 4 fold
B1: Jagged peptide JAG-1 (peptide)
peptide: CDDYYYGFGCNKFCRPR

NICD nuclear localization, R-JAG together with glucose: 6 fold | NICD translocation (nuclear NICD, immunoblot of nuclear extracts of RIN cells): 4 fold
B2: Jagged peptide R-JAG (peptide)
peptide: CDDYYYGFGCNKFGRPRDD
